What all share (test): cell-based or functional assay
For assay [1], the target named is SARS-CoV-2 Omicron BA.3 spike (S) protein (SARS-CoV-2).
Assay [2] concerns the target SARS-CoV-2 Omicron BA.1 spike (S) protein (SARS-CoV-2).
Assay [3] addresses SARS-CoV-2 Omicron BA.2 spike (S) protein (SARS-CoV-2).

Bounds are passed on as bounds.

Chain of AZD8895 (antibody) (VH): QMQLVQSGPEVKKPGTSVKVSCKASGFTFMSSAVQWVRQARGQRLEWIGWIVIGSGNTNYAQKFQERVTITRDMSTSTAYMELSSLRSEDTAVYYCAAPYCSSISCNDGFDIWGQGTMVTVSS
Chain of AZD8895 (antibody) (VL): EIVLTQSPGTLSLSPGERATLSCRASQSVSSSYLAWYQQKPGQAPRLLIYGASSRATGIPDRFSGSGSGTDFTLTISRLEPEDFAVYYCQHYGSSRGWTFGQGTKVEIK

On to Ly-CoV16 (antibody), for which the IC50, pseudoviral neutralization in assay [1], in assay [2] and in assay [3] was above 10 µg/mL throughout.
Regarding ADG30 (antibody), the IC50, pseudoviral neutralization in assay [1], in assay [2] and in assay [3] was above 10 µg/mL each time.
Regarding ADG20 (antibody), the IC50, pseudoviral neutralization was above 10 µg/mL in assay [1], 0.348 µg/mL in assay [2] and above 10 µg/mL in assay [3].
For AZD1061 (antibody), the IC50, pseudoviral neutralization was 0.019 µg/mL in assay [1], 0.308 µg/mL in assay [2] and 0.008 µg/mL in assay [3].
As for REGN10933 (antibody), the IC50, pseudoviral neutralization in assay [1], in assay [2] and in assay [3] was above 10 µg/mL throughout.
Turning to Ly-CoV555 (antibody), the IC50, pseudoviral neutralization in assay [1], in assay [2] and in assay [3] was above 10 µg/mL in each case.
Turning to Ly-CoV1404 (antibody), the IC50, pseudoviral neutralization was 0.002 µg/mL in assay [1], 0.002 µg/mL in assay [2] and 0.001 µg/mL in assay [3].
For S309 (antibody), the IC50, pseudoviral neutralization in assay [1] stood at 0.311 µg/mL; in assay [2] it was 0.313 µg/mL; in assay [3], 0.638 µg/mL.
As to ADG10 (antibody), the IC50, pseudoviral neutralization in assay [1], in assay [2] and in assay [3] was above 10 µg/mL in each case.
Regarding AZD8895 (antibody), the IC50, pseudoviral neutralization was above 10 µg/mL in assay [1], 0.246 µg/mL in assay [2] and 1.33 µg/mL in assay [3].
The matching figures for REGN10987 (antibody): above 10 µg/mL, above 10 µg/mL and 0.516 µg/mL.

The values are drawn from US20230265170A1.
